# In the RNAGym collection of RNA variant scans (doi:10.7554/elife.80360):
# B1: Hairpin Ribozyme (parent)
# chain: GUCCUCUUUCACGUGCGCGUGAAAGAGAGAAGUGAACCAGAGAAACACACGUUGUGGUAUAUUACCUGGUA
# Variants of: B1
# Experiment: self-cleavage, relative activity (ratio to wild type); higher = more cleavage; co-transcriptional
row,Variant,self-cleavage
1,C46A G54U,0.307
2,U55C U63A,0.18
3,G51U A71C,1.46
4,A41G C50A,0.255
5,G15C A26C,0.834
6,G19C U53C,0.679
7,A43C A61U,0.0908
8,C48U U53C,0.233
9,G42C A44G,0.137
10,A30C G34U,0.815
11,U58G C66U,0.403
12,G1A G19C,0.203
13,G34A U70C,1.05
14,A44G U53A,0.214
15,A30U U53C,0.041
16,G15C A43U,0.126
17,C3A A44C,0.123
18,C37A G40U,0.129
19,A26U A49C,0.157
20,G1A G13A,0.161
21,U33A A64G,0.164
22,U14G U67A,0.186
23,U20C A23G,1
24,C3A G25A,0.457

row,Variant,self-cleavage
1,U33G A45C,0.112
2,U7G A41G,0.946
3,U14G C37G,0.276
4,A64C U67G,0.147
5,G17C A61U,0.198
6,C10G G54A,0.375
7,G32U U58C,0.116
8,G68U G69C,0.136
9,C3U G56U,0.0961
10,G1A A31U,0.284
11,G19U U53G,0.772
12,A11C A30U,0.177
13,C10A U55G,0.303
14,C18U U70A,0.899
15,G1A A45U,0.106
16,U9G A49G,0.558
17,C3A G21U,0.655
18,U8A U70G,0.585
19,G15C A39U,0.402
20,U7C G51U,1.1
21,C16G A61G,0.151
22,G17A C50G,0.327
23,C4G G51U,0.223
24,G29U C46A,0.089

row,Variant,self-cleavage
1,A11G G13C,0.567
2,A49C U60A,0.333
3,U2G U5G,0.0759
4,A30C U55C,0.161
5,G21C G54U,0.511
6,U52G A61G,0.163
7,C16U A24G,0.997
8,C10A G34A,0.92
9,U55C G69A,0.166
10,G25A U60C,0.976
11,U53G G69C,0.316
12,C18G C37U,0.493
13,G34C A39C,0.9
14,G1A U67G,0.116
15,A28G,1.12
16,U5A G68U,0.154
17,U9A G40U,0.119
18,G21U U63C,0.122
19,C12G G25C,0.489
20,A35U A64U,0.178
21,G1U A43C,0.169
22,U58G A64U,0.218
23,G27A A59U,0.185
24,G19U C66U,0.334

row,Variant,self-cleavage
1,U9G A43G,0.116
2,A26C G56A,0.163
3,A23U A31C,0.147
4,A30U A43G,0.108
5,C4A G21U,0.178
6,C38G C46G,0.161
7,A61U C66G,0.233
8,A30G C37A,0.192
9,A24C A44C,0.0908
10,G21U A71G,0.805
11,A45G C66A,0.176
12,A26C G27U,0.0629
13,A28C G32C,0.121
14,A23U A31G,0.805
15,G17C C18A,0.947
16,U33C C38U,0.0575
17,U5A C10U,0.333
18,C50G U60A,0.268
19,G1U A23C,0.0726
20,U5A A64C,0.151
21,G29U U55G,0.062
22,C16A G27U,0.202
23,G1A A41C,0.134
24,U52A U53C,1.32

row,Variant,self-cleavage
1,A41G G57U,0.184
2,U9G G69U,0.111
3,G29U A61C,0.14
4,G54C U60C,0.47
5,A49G G51C,0.495
6,G21U U55A,0.227
7,A24C U67A,0.185
8,C38G U52C,0.224
9,G1U U70A,0.111
10,G51A G69A,0.596
11,G32C G57U,0.072
12,C50G U70G,0.314
13,C10A A61G,0.183
14,C50G G56C,0.0923
15,C16G A49G,0.544
16,A36U A71U,0.524
17,U9A G32C,0.178
18,C18A U52G,0.86
19,U20C A71C,1.28
20,A24C A31G,0.66
21,C4A A44C,0.0924
22,C16U U33A,0.0953
23,U2A G13U,0.186
24,U9C G68A,0.344

row,Variant,self-cleavage
1,U33G G57A,0.115
2,G34U A71U,1.36
3,G27C A30U,0.255
4,U14G A43G,0.0894
5,A23C U33A,0.109
6,U7C G13C,0.518
7,G25A C38G,0.252
8,A43G U58A,0.128
9,C50G U63C,0.114
10,A22C C65U,0.303
11,U2G A59C,0.223
12,G27C U60G,0.0405
13,U7G C65G,0.31
14,U20G A61C,0.11
15,G25U A30C,0.146
16,A11U G34U,1.36
17,U5G A43U,0.155
18,G21A C65A,0.861
19,C37G A59C,0.0453
20,G34U A61G,0.636
21,C6U G34C,1.1
22,A44G C50U,0.134
23,G1C C38G,0.112
24,C10A C46U,0.2

row,Variant,self-cleavage
1,A23G A26U,0.842
2,A44G U52C,0.223
3,U5G C46A,0.195
4,A11G U67C,0.214
5,G21A A64G,0.418
6,A24C G68C,0.255
7,U53G C66G,0.152
8,C12G U67C,0.233
9,C10A U58A,0.485
10,U8A A71C,1.23
11,C12U U55A,0.191
12,A28U A59C,0.0961
13,G13C G29U,0.0913
14,U58C C66G,0.154
15,U2C A35G,0.243
16,A39G U58G,0.114
17,A28C A39C,0.238
18,C16G G69C,0.197
19,U7A G29A,0.099
20,G13A C50U,0.373
21,G32C C66A,0.0957
22,G15U G68A,0.387
23,G40C A45C,0.0755
24,A41C C48U,0.183

row,Variant,self-cleavage
1,A31U U53G,0.122
2,C18G G68U,0.171
3,C3U U53G,0.517
4,A22U G57U,0.366
5,G25U G27C,0.254
6,A59U G69C,0.323
7,U7C C12A,0.516
8,C3G U9G,0.0419
9,G15A G29C,0.106
10,C4G A59G,0.169
11,C4A U60A,0.197
12,C16A G51A,0.943
13,G29C A35G,0.178
14,G1A U8C,0.265
15,U2G A71G,0.307
16,G13C C16G,0.407
17,C16U G17U,0.92
18,C4A U5A,0.125
19,G21C A45U,0.154
20,A39C U55C,0.188
21,A36C A64U,0.309
22,U20G G32U,0.162
23,A26C U67G,0.196
24,U5A A47U,0.0694

row,Variant,self-cleavage
1,U5A U60C,0.709
2,A64U,0.181
3,C12U A45G,0.162
4,U67G U70G,0.125
5,A39G A41C,0.267
6,C12G A39G,0.29
7,A28C A43C,0.125
8,C4G C65U,0.224
9,G13U U33A,0.105
10,G27C C48G,0.164
11,G21C U67C,0.18
12,C65U U70G,0.148
13,A59U C66A,0.128
14,G1U A24C,0.162
15,A61G C66G,0.329
16,U5A U63A,0.206
17,U5C A36C,0.576
18,U8G G54C,0.313
19,A28U U55G,0.159
20,G29C A49G,0.178
21,C12G C38U,0.392
22,C6G C38A,0.103
23,U7G U55G,0.215
24,A26G G68U,0.131

row,Variant,self-cleavage
1,A44G G57A,0.123
2,G27C A45C,0.11
3,C12A A35U,0.635
4,C16U G19A,1.03
5,U9C C37A,0.355
6,A11U G25C,0.205
7,C48U G56A,0.222
8,U20A U62C,0.446
9,U5A G32A,0.158
10,G42C A59C,0.188
11,A24G G32U,0.0918
12,G29U C65U,0.105
13,G19C C50A,0.264
14,U8G C50G,0.125
15,G40U U58A,0.155
16,U2C U60C,0.222
17,C18G C37G,0.259
18,U7A A39G,0.318
19,A49G C65U,0.107
20,U2A A35C,0.374
21,A31C U58A,0.171
22,C6G U55G,0.167
23,U9G C50A,0.24
24,C4U U70A,0.299

row,Variant,self-cleavage
1,A22C A59G,0.25
2,G21C U58A,0.577
3,G40U U62A,0.141
4,C4A U33G,0.234
5,C4U G21U,0.222
6,A35G A43C,0.118
7,C16A A30G,0.11
8,U2G A44G,0.0352
9,G32C A61G,0.136
10,G15U A64C,0.16
11,C18U G21C,0.883
12,G29U A59G,0.0822
13,U53G C66U,0.552
14,G27U G32A,0.104
15,G1U A49U,0.0947
16,U7G G40A,0.308
17,A43G A44U,0.207
18,C12G G68C,0.144
19,G13U U62A,0.179
20,U67G,0.28
21,G27U A59G,0.209
22,U9C A39U,0.411
23,C37U G57U,0.221
24,G13U G68U,0.243

row,Variant,self-cleavage
1,A22U U53G,0.817
2,G13A C66U,0.419
3,A28U G69U,0.0991
4,G29U A41C,0.217
5,U5A G57U,0.102
6,C38U G56C,0.171
7,A11C G51U,1.13
8,C12U C37G,0.27
9,G25C G29U,0.188
10,U7A U9A,0.666
11,C50U U60C,0.729
12,U2G G19U,0.336
13,A49U U63C,0.172
14,U63G C66A,0.119
15,U33G G40A,0.245
16,A28G U67C,0.276
17,C18U A26U,0.59
18,A45G U67A,0.0776
19,A36U A49G,0.281
20,U14C G56C,0.163
21,A47C U70G,0.272
22,C18G G56A,0.14
23,G32C G56C,0.149
24,A39U G56C,0.169

row,Variant,self-cleavage
1,A44U U52G,0.121
2,A43C A47U,0.24
3,C48G G69C,0.0597
4,A11G C66G,0.173
5,G19U A26C,0.238
6,A30C G32A,0.145
7,U58G U60G,0.731
8,C66A G68A,0.126
9,A43G C50A,0.131
10,A36G G40C,0.122
11,A24C G57C,0.131
12,C37U U58A,0.48
13,U33A G56A,0.239
14,C12G A30U,0.147
15,A31G A49U,0.11
16,U60A C66U,0.274
17,G1U G17C,0.112
18,A26G G34A,1.19
19,G19A C37U,0.567
20,U7G G29U,0.136
21,C3G G13U,0.259
22,G54U U67C,0.106
23,A36C,0.659
24,A22C C65A,0.64

row,Variant,self-cleavage
1,A28C U60A,0.448
2,A47U G69U,0.138
3,U5C U33C,0.0316
4,A22G A31C,0.159
5,U5C U33A,0.149
6,A43C G54A,0.217
7,A35G G51C,0.689
8,C16G G19C,0.618
9,A11G A64G,0.507
10,C10G A59G,0.171
11,U20C A49C,0.172
12,C38G A44U,0.207
13,U5A A64U,0.133
14,G57C U60A,0.14
15,A36U G69C,0.127
16,A47U U60C,0.0859
17,G34C C37G,0.781
18,U2G A26G,0.277
19,C3A U62G,0.101
20,G1A G69C,0.137
21,G42C C50A,0.212
22,U8C A26C,0.316
